The record followed here is US20250099379A1, “NEW SYSTEM FOR THE TOPICAL PHARMACOLOGICAL RELEASE OF AN ACTIVE INGREDIENT” (UNIVERSITÀ DEGLI STUDI DI PADOVA, priority 2022, published 2025).

The nature of data set [1]: Release of BSA-FITC from wet silica sol-gel suspended in 3% HPMC hydrogel or buffer (dialysis tubes). The class given is physicochemical. Particulars: BSA-FITC in silica hydrogel (SiO2 8%), equal volume of release buffer or 3% HPMC; PBST+0.1% BSA at 37° C. Here is the method: In a preliminary test it was evaluated if the use of hydrogel of 3% w/v HPMC as diluent for the suspension of silica nanoparticles influences the release of a protein incorporated therein. To this purpose, preparations constituted by silica hydrogel having incorporated the model protein BSA-FITC, suspended in an equal volume of release buffer or t 3% HPMC, were inserted in dialysis tubes (cut-off 100 KDa) and immersed in PBST+0.1% BSA at 37° C. At programmed time points the content of BSA-FITC was quantified in the acceptor solution by fluorescence spectroscopy.

A further data set deals with MDCK cells. The experiment in a line: Scatter assay on MDCK cells. The class given is cell-based, canine. Particulars: solution of release from gel at SB3 50 μg/mL; similar to recombinant SB3 positive control (CTR+). Here is the method:
The results were represented graphically by tracing the ratio between the amount of protein released in each time point (Mt) and the total protein (Mtot) incorporated in function of time. The released functional capability of SB3 was verified by scatter assay, as previously reported (Quarta et al. J Pathol 2010; 221:343-356). In detail, canine kidney cells Madin-Darby (MDCK) (5×10^3 cells/well), were treated with two different dilutions of SB3 released by the wet silica microspheres for 5 and 24 hours. The cells were fixed in 4% formaldehyde, coloured with blue solution of Coomassie and the scattering effect was analysed by using the Axiovert 200M microscope (Carl Zeiss Microscopy GmbH, Germania). As positive control, SB3 recombinant at 200 ng/ml was used.

A short description of data set [2]: Release of SB3 from wet silica sol-gel into buffer (ELISA quantification). The class given is physicochemical. The note with it: wet silica sol-gel (8% SiO2 w/w), crushed manually; gels loaded at SB3 5 and 50 μg/mL; immersion in buffer at 37. The method, then: 200 μl of the prepared product containing SB3 in silica hydrogel were suspended in 10 mL of phosphate buffer 100 mM, 0.05% Tween 20, 0.1% BSA, pH 6.0 and incubated at 37° C. under slight stirring. At defined time moments (0 h, 5 h and 24 h) the sample was centrifuged (1390 g) and a small portion of supernatant (250 μl) was removed by titration of SB3 and replaced with fresh buffer. The compound was then re-suspended in the supernatant by a slight vortex and the incubation at 37° C. was continued until the subsequent moment. The concentration of SB3 in the supernatants was quantified by sandwich ELISA (kit HEPA Lisa, Xeptagen S.p.A, Vega Park, Venice) by following the manufacturer's instructions. […] After washing, the concentration of SB3 was detected by incubation with 100 μL of anti-SB3 secondary Ab conjugated with streptavidin HRP (0.5 μg/mL). The plate was developed with a solution of substrate 3,3′,5,5′-tetramethylbenzidin (TMB) ready for use. The reaction was interrupted with 1 mol/L of HCl (100 μL) and the absorbance at 450 nm was measured on a reader of microplates (Victor×3; Perkin Elmer, Waltham, MA, USA). […]
(In general: In an ELISA, binding on a coated surface is turned into a signal by an enzyme label.)

Regarding “BSA-FITC: model protein BSA-FITC incorporated in silica hydrogel”, the “Release profiles in presence or absence of HPMC hydrogel” value in data set [1] is on record as “almost superimposable”.

B1: SB3: human SerpinB3 protease inhibitor protein, produced recombinantly; incorporated in wet silica sol-gel (8% SiO2) (protein, UniProt P29508 1-390, looked up)
Serpin B3: MNSLSEANTKFMFDLFQQFRKSKENNIFYSPISITSALGMVLLGAKDNTAQQIKKVLHFDQVTENTTGKAATYHVDRSGNVHHQFQKLLTEFNKSTDAYELKIANKLFGEKTYLFLQEYLDAIKKFYQTSVESVDFANAPEESRKKINSWVESQTNEKIKNLIPEGNIGSNTTLVLVNAIYFKGQWEKKFNKEDTKEEKFWPNKNTYKSIQMMRQYTSFHFASLEDVQAKVLEIPYKGKDLSMIVLLPNEIDGLQKLEEKLTAEKLMEWTSLQNMRETRVDLHLPRFKVEESYDLKDTLRTMGMVDIFNGDADLSGMTGSRGLVLSGVLHKAFVEVTEEGAEAAAATAVVGFGSSPTSTNEEFHCNHPFLFFIRQNKTNSILFYGRFSSP
Regarding B1, the “Scattering of cohesive cell colonies” value in the data set with MDCK cells was “induced the 20 time-depending scattering of strictly cohesive colonies of MDK cells”. The “Mechanism of SB3 release (Mt/Mtot % vs square root of time, linear correlation)” value in data set [2] is given as “takes place through a diffusion process”.
